Consider two substances from article PMC11705898.

For assay [1], the target named is S. aureus PhoU with amino terminal histidine tag (pETphoU1_6xHN) (S. aureus Mu50). Put plainly: SEC; HiPrep 16/60 Sephacryl S-200 HR, 50 mM NaPO4, 150 mM NaCl pH 7.0, 0.5 mL/min; elution volume compared with volumes calculated from protein standards; loaded immediately after Ni purification.
Assay [2] concerns the target S. aureus PitR with amino terminal histidine tag (pETphoU2_6xHN) (S. aureus Mu50). The description is as above.

For the substance “S. aureus PhoU with amino terminal histidine tag (pETphoU1_6xHN) (natural protein)”, the stoichiometry N in assay [1] was 2. With “S. aureus PitR with amino terminal histidine tag (pETphoU2_6xHN) (natural protein)”, the stoichiometry N in assay [2] was 2.
